Values joined by “and” are separate entries in the source; they are usually repeats but may differ in a detail not shown here. Equal entries are not always repeated. Each block holds one molecule with its values, some of them ahead of it.
B2: recombinant human soluble tissue factor (receptor, UniProt P13726 33-251, looked up)
chain: SGTTNTVAAYNLTWKSTNFKTILEWEPKPVNQVYTVQISTKSGDWKSKCFYTTDTECDLTDEIVKDVKQTYLARVFSYPAGNVESTGSAGEPLYENSPEFTPYLETNLGQPTIQSFEQVGTKVNVTVEDERTLVRRNNTFLSLRDVFGKDLIYTLYYWKSSSSGKKTAKTNTNEFLIDVDKGENYCFSVQAVIPSRTVNRKSTDSPVECMGQEKGEFRE
notes: extracellular domain; also called sTF; soluble TF

What was measured:
[1] = molecular target: FVIIa/TF complex on a phospholipid surface (recombinant human TF vesicles with human FVIIa) (UniProt P13726)
[2] = molecular target: B2; experiment: BIAcore; BIAcore; free sTF, no FVIIa
[3] = molecular target: B2; experiment: microcalorimetry (isothermal titration calorimetry), model OneSites, CHO-expressed scFv(TF)3e10 titrated into sTF; no unit printed in the fit box
Method: (§1) This assay is performed using a MicroCal VP-ITC instrument. […] Data analysis is performed using MicroCal Origin software. The data is fit to a single binding site.

[4] = molecular target: T1, FVIIa/TF complex preformed from sTF and FVIIai (human, UniProt P13726 33-251; P08709 61-466, limits assumed, active site inactivated by a chloromethylketone peptide, PPACK (FVIIai)); experiment: microcalorimetry (isothermal titration calorimetry), model OneSites, CHO-expressed scFv(TF)3e10 titrated into the preformed sTF/FVIIai complex
T1 construct: extracellular domain;mature; Complex used in the microcalorimetry assay; It was made with a 2.3 fold molar excess of FVIIai over sTF; also called TF/FVIIa complex; sTF/FVIIa complex
Method: as §1

[5] = molecular target: FVIIa/TF complex on a phospholipid surface (recombinant human TF vesicles with human FVIIa) (human, UniProt P13726 33-295; P08709 61-466); experiment: cell-based or functional assay
[6] = molecular target: T2, human factor VIIa (human, UniProt P08709 61-466); experiment: sTF/FVIIa peptide hydrolysis assay (S2266), 2 nM FVIIa, no sTF
T2 construct: mature; also called FVIIa
T2 sequence (looked up): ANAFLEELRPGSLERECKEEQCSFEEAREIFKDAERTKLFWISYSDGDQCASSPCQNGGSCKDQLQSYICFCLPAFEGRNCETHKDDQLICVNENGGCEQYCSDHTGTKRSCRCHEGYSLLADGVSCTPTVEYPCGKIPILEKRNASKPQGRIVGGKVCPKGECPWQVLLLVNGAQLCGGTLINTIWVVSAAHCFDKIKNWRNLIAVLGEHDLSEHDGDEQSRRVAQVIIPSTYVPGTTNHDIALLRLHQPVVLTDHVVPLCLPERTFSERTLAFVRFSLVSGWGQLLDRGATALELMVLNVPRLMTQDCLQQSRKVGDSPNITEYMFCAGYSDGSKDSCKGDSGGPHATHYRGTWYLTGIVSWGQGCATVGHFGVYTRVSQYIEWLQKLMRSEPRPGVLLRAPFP

[7] = molecular target: T1, FVIIa/TF complex preformed from sTF and …; experiment: microcalorimetry (ITC); scFv expressed in mammalian (CHO) cells; complex of sTF with FVIIai; microcalorimetry; TF/FVIIa complex; mammalian cell expressed scFv
Method: as §1

[8] = molecular target: B2; experiment: microcalorimetry (ITC); scFv expressed in mammalian (CHO) cells; free sTF; microcalorimetry; free sTF; mammalian cell expressed scFv
Method: as §1

[9] = molecular target: T3, sTF/FVIIa complex (soluble tissue factor with active human FVIIa) (human, UniProt P13726 33-251; P08709 61-466); experiment: sTF/FVIIa peptide hydrolysis assay (3 nM sTF, 2 nM FVIIa); scFv titrated, 4-parameter fit of the rise in rate; bacterially expressed scFv; peptide hydrolysis assay with 3 nM sTF and 2 nM FVIIa present
T3 construct: extracellular domain;mature; The complex forms in the sTF/FVIIa peptide hydrolysis assay (3 nM sTF, 2 nM FVIIa); also called FVIIa/TF complex; VIIa/TF complex

[10] = molecular target: T1, FVIIa/TF complex preformed from sTF and …; experiment: microcalorimetry (ITC); scFv expressed in mammalian (CHO) cells
Method: as §1

[11] = molecular target: T1, FVIIa/TF complex preformed from sTF and …; experiment: microcalorimetry (isothermal titration calorimetry), model OneSites, CHO-expressed scFv(TF)3e10 titrated into the preformed sTF/FVIIai complex; no unit printed in the fit box
Method: as §1

[12] = molecular target: T2, human factor VIIa; experiment: sTF/FVIIa peptide hydrolysis assay (S2266), 2 nM FVIIa, sTF titrated, apparent KD from a 4-parameter fit; no antibody

Molecule: human factor X
- Km of FX for the VIIa/TF complex (FX activation assay) [1]: between 0.061 and 0.099 µM

- Kd [2]: 470 nM
- ΔH [3]: -21800
- N [4]: 1.14
- IC50 for inhibition in the FX activation assay [5]: 0.44 nM
- binding result [6]: no binding (tested: 800 nM)
- Kd [7]: 33 nM
- Kd [8]: 600 nM
- Kd [9]: 65 nM
- fold higher affinity for the TF/FVIIa complex as compared to free sTF [10]: ~20 fold
- ΔH [11]: -28600
- ΔS [11]: -60
B1: single chain anti-TF antibody scFv(TF)3e10 (scFv)
scFv: EMAQVNLRESGGTLVQPGGSLRLSCAASGFSFTDAWMSWVRQAPGKELEWVSSISGSGGSTYYAGSVKGRFTISRDNSKNTLYLQMNSLRAEDTAVYYCARVLSLTDYYWYGMDVWGQGTLVTVSAGGGGSGAPNFMLTQPHSVSASPGKTVTISCTRSSGSVASYYVQWYQQRPGSSPTTVIYEDNHRPSGVPDRFSGSIDTSSNSASLTISGLKTEDEADYYCQSYDSNNLVVFGGGTKLTVLGAAAGAPVPYPDPLEPRAA
notes: Monomer and dimer forms were separated by gel filtration

Molecule: B2
- Kd [12]: 13 nM
